Laboratory results: publication PMC5311907, “ClickIn: a flexible protocol for quantifying mitochondrial uptake of nucleobase derivatives” (Interface Focus, 2017)

System: isolated rat liver mitochondria
Assay: ClickIn/MPP uptake experiment in isolated rat liver mitochondria (MALDI-TOF quantification of clicked, processed PNA 8)
Format: in vitro ADME
Procedure: Rat liver mitochondria were prepared by differential centrifugation as previously described, and diluted to a 20 mg protein ml^−1 concentration in STE buffer (250 mM sucrose, 5 mM Tris, 1 mM EGTA, pH 7.4) and stored for a maximum of 3 h on ice. Peptide–PNA 6 was dissolved at the indicated concentrations in 100 µl KCl buffer (120 mM KCl, 10 mM HEPES, 1 mM EGTA, 1 mM ADP, 1 mM MgCl2, 1 mM KPi, 0.05% BSA, pH 7.4) supplemented with 10 mM potassium succinate, 4 µg ml^−1 rotenone and 10 µM MitoOct. Where indicated carbonyl cyanide-4-(trifluoromethoxy)phenylhydrazone (FCCP, 500 nM) was added to the buffer. The buffer was warmed for 5 min at 37°C after which the reaction was initiated by addition of 5 µl mitochondria suspension (100 µg protein). The mitochondria were incubated for 1 h at 37°C, after which the reaction was stopped by the addition of 3-phenyl-1,2,4,5-tetrazine (PhTet, 50 µM). The mitochondria were pelleted by centrifugation at 16 000g for 1 min, and supernatant was removed. Next 100 µl 20% acetonitrile solution with 0.1% formic acid, 50 µM PhTet and 0.1 µM internal standard 5 was added to the pellet. The pellet was suspended by three cycles of freezing in solid CO2 (5 min) and sonication in a Grant XB2 ultrasonic bath. The obtained solution was centrifuged at 16 000g for 10 min. The sample was spotted onto an MALDI-plate using the bottom-layer method. Matrix (0.75 µl, 50% acetonitrile, 5 mg ml^−1 α-cyano-4-hydroxycinnamic acid, 10 mM dibasic ammonium citrate, 0.1% TFA) was spotted on the plate and 0.75 µl sample was mixed in. The spot was left to dry at room temperature, after which another layer of 0.75 µl of matrix was added. In total, 20 spectra with 10 shots each were collected per spot, using a minimum intensity of 1000 and a maximum of 10 000 as selection criterion, averages were taken of three spots per experiment. All experiments were performed in triplicate using different mitochondrial preparations and are presented as averages ±s.e.m.
Isolated rat liver mitochondria were incubated with various concentrations of peptide (0.1–10 µM) in import buffer, in the presence of MitoOct, for 1 h at 37°C. As previously described, the reaction was stopped by addition of PhTET and centrifugation. The pellet was extracted (20% acetonitrile, 0.1% formic acid, 50 µM PhTet, 0.1 μM 5) and analysed by MALDI-TOF (figure 3 and electronic supplementary material, S1). […] This is consistent with FCCP not only inhibiting the ClickIn reaction, but also inhibiting the processing of COX8-PNA-click by stopping import of 6. The absence of signal in the presence of FCCP is striking (figure 3 and electronic supplementary material, S1), and enables the qualitative observation of PNA uptake in isolated mitochondria. […] It is interesting to note that, even though the MPP is known to cleave after the 25th residue of the COX8 pre-sequence, we see no evidence of the four amino acids, IHSL, predicted to remain at the N-terminal of our cleaved product. Our previous unpublished results have shown a very minor amount of the PNA product still carrying leucine at the N-terminal but not any of the remaining amino acids. It is likely that these residues are removed by a protease residing in the mitochondrial matrix.

**Q.** What does the source list for “COX8-Cys-Ac-GTCA-Lys(N3)-NH2 [compound 6]”?
**A.** formation of product 8 in the presence of FCCP (uncoupled membrane potential) (as the uptake experiment, plus FCCP 500 nM, all added concentrations of 6 (0.1–10 µM), 1 h at 37°C, MALDI-TOF): no product 8 could be observed; formation of clicked PNA (product 8) as measure of mitochondrial matrix import (isolated rat liver mitochondria (100 µg protein) in 100 µl KCl buffer pH 7.4, 10 mM succinate, 4 µg/ml rotenone, 10 µM MitoOct, 0.1–10 µM 6, 1 h at 37°C, stopped with 50 µM PhTet, pellet extract, MALDI-TOF with 0.1 µM internal standard 5, triplicate, different mitochondrial preparations): Significant amounts of clicked PNA were observed in all samples; concentration dependence of the ClickIn/MPP reaction (quantified 8) (isolated rat liver mitochondria, 10 µM MitoOct, 1 h at 37°C, MALDI-TOF with internal standard 5, figure 3c, averages ± s.e.m., triplicate): typical dose–response curve for concentrations of 6 up to 5 µM; cleaved but not clicked 6 seen in mass spectra (isolated rat liver mitochondria, 10 µM MitoOct, 1 h at 37°C, MALDI-TOF, without FCCP, not observed in the presence of FCCP): small amounts of cleaved but not clicked 6; toxic effect on the mitochondria (isolated rat liver mitochondria, concentrations of 6 higher than 5 µM, inferred from the dose–response curve): might have a toxic effect on the mitochondria
